Results published in US20060141545A1.

What was measured:
[1] = target: murine VCAM-1 (vascular endothelial adhesion molecule-1) (murine) (UniProt P29533); test: cell-based or functional assay
[2] = target: murine VCAM-1 (vascular endothelial adhesion molecule-1) (murine) (UniProt P29533); test: bEnd.3 cells, unstimulated against IL-1α-stimulated
[3] = target: murine VCAM-1 (vascular endothelial adhesion molecule-1) (murine) (UniProt P29533); test: IL-1α-activated bEnd.3 cells treated with anti-VCAM-1•tTF, bound coaguligand detected with 125I-labeled 10H10

UniProt P29533, sequence (P29533 25-739): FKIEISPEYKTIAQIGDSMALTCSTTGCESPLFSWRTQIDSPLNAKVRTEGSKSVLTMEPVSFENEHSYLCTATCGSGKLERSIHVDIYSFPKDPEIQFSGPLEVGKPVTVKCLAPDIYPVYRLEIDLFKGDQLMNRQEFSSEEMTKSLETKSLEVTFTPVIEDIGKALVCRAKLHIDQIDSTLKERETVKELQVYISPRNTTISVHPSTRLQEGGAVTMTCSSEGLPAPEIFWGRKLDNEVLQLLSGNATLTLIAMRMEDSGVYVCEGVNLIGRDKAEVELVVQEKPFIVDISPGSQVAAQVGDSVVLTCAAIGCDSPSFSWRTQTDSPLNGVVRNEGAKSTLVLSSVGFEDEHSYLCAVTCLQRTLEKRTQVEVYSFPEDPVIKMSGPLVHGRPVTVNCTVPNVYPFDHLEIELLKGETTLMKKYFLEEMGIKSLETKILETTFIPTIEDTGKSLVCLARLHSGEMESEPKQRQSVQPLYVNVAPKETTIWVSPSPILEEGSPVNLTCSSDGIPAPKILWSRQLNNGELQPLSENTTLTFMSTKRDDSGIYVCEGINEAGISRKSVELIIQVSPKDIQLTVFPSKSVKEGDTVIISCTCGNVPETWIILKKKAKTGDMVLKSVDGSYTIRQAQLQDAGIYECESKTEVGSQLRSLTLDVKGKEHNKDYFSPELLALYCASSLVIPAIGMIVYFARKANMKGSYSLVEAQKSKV

Generation of factor Xa (chromogenic assay, S-2765), intact IL-1α-stimulated bEnd.3 cells (ng per 10^4 cells per 60 min) [1]: 3.17
Generation of factor Xa (chromogenic assay, S-2765), intact unstimulated bEnd.3 cells (ng per 10^4 cells per 60 min) [1]: 1.64
Generation of factor Xa (chromogenic assay, S-2765), saponin-permeabilized IL-1α-stimulated bEnd.3 cells (ng per 10^4 cells per 60 min) [1]: 98.8
Generation of factor Xa (chromogenic assay, S-2765), saponin-permeabilized unstimulated bEnd.3 cells (ng per 10^4 cells per 60 min) [1]: 49.2
factor Xa produced by permeabilized IL-1α-stimulated bEnd.3 cells preincubated with coaguligand, no Annexin V ([1]; scale: ng of factor Xa per 10,000 cells per 60 min): 95
amount bound to unstimulated cells against stimulated cells [2]: 50 % lower
amount of anti-TF antibody bound at saturation [3]: 8.7 fmol
molecules of anti-TF antibody bound per cell at saturation (molecules per cell) [3]: 540000
Substance: anti-VCAM-1•tTF coaguligand (MK2.7 anti-VCAM-1 IgG covalently linked through SMPT to truncated human tissue factor) (from UniProt P13726 33-251)
